Source: patent US20250361326A1 (Hoffmann-La Roche, published 2025)

Assays:
[1] = molecular target: T1, VEGF (UniProt P15692-9 27-147); assay: bridging ELISA, VEGF coated, digoxygenin-Cy5 detection; binder has dig arm, no VEGF arm
T1 construct: also called VEGF121
T1 sequence (looked up): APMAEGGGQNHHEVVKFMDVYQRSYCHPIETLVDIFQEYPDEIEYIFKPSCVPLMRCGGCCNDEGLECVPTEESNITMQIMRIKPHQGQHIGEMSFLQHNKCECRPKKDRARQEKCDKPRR

[2] = molecular target: T1, VEGF; assay: bridging ELISA of exchange reaction mix, 1.3 µM input; VEGF coated, biocytinamid-Cy5 detection; highest value = 100%; binder has neither arm
[3] = molecular target: T1, VEGF; assay: bridging ELISA of exchange reaction mix, 1.3 µM input; VEGF coated, digoxygenin-Cy5 detection; highest value = 100%; binder has dig arm, no VEGF arm

relative signal intensity [2]: 9.1% | relative signal intensity [3]: 6.7%
B1: anti-dig/anti-fluos bispecific antibody (exchange reaction: dig MHCFcRP-knob-E357K row x fluos MHCFcRP-hole-K370E column) (bispecific antibody, human IgG1, not shown: small tags and cut ends)
heavy 1: QVQLVESGGGLVKPGGSLRLSCAASGFTFSDYAMSWIRQAPGKGLEWVSSINIGATYIYYADSVKGRFTISRDNAKNSLYLQMNSLRAEDTAVYYCARPGSPYEYDKAYYSMAYWGQGTTVTVSSASTKGPSVFPLAPSSKSTSGGTAALGCLVKDYFPEPVTVSWNSGALTSGVHTFPAVLQSSGLYSLSSVVTVPSSSLGTQTYICNVNHKPSNTKVDKKVEPKSC
light 1: not shown
heavy 2: not shown
light 2: DIVMTQTPLSLSVTPGQPASISCKSSQSLVHSNGNTYLRWYLQKPGQSPKVLIYKVSNRVSGVPDRFSGSGSGTDFTLKISRVEAEDVGVYYCSQSTHVPWTFGQGTKLEIKRTVAAPSVFIFPPSDEQLKSGTASVVCLLNNFYPREAKVQWKVDNALQSGNSQESVTEQDSKDSTYSLSSTLTLSKADYEKHKVYACEVTHQGLSSPVTKSFNRGEC
notes: Product of the 2/3-IgG exchange reaction, tested as reaction mix; human IgG1 knob-into-hole format; also called dig/fluos bsAb
binding result [1]: no binding (tested: 1.3 µM input molecule concentration)
